{
  "source": "paper PMC1874613",
  "binders": {"B1": {"name": "Se1 (G-C)5 to (G.G)5 (structured_RNA)", "RNA": "GGACCUUUGUACCCCAGAUGAUGGCUUCACUGGUUGAUGGGUACAAAUGGCAG"}, "B2": {"name": "Se2 (structured_RNA)", "RNA": "GGACCUUUGUACCCCAGAUGACGGCUCAUUUCGUGCUUGAUGGGUACAAAUGGCAG"}, "B3": {"name": "Se3 (structured_RNA)", "RNA": "GGACCUUUGUACCCCAGAUGAUGCUUUAUCAGGCGGAUGGGUACAAAUGGCAG"}, "B4": {"name": "Se4 (structured_RNA)", "RNA": "GGACCUUUGUACCCCAGAUGAUAGUAAAGCGCGGCUUGAUGGGUACAAAUGGCAG"}, "B5": {"name": "Se5 (structured_RNA)", "RNA": "GGACCUUUGUACCCCAGAUGAUAGUGAGGCGCGGCUUGAUGGGUACAAAUGGCAG"}, "B6": {"name": "Se6 (structured_RNA)", "RNA": "GGACCUUUGUACCCCAGAUGAUAGUAAGGCGCGGCUUGAUGGGUACAAAUGGCAG"}, "B7": {"name": "Se1 (structured_RNA)", "RNA": "GGACCUUUGUACCCCAGAUGAUGGCUUCACUGCUUGAUGGGUACAAAUGGCAG"}, "B8": {"name": "Se1:Ins + loop (structured_RNA)", "RNA": "GGACCUUUGUACCCCAGUUUAUGAUGGAUCUUCACUGAUCUUGAUCCCCUGGGUACAAAUGGCAG"}, "B9": {"name": "Se1:Ins (structured_RNA)", "RNA": "GGACCUUUGUACCCCAGAUGAUGGGCCUUCACUGGCCUUGAUGGGUACAAAUGGCAG"}},
  "key": {"Snu13p [1]": {"target": "T1, Snu13p (yeast, UniProt P39990 1-126)", "T1 sequence": "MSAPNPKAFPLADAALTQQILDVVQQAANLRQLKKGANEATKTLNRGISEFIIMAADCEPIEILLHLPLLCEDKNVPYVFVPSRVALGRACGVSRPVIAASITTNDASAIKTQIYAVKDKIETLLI", "assay": "EMSA"}, "C-SBP2 [2]": {"target": "T2, C-SBP2 (human, UniProt Q96T21 515-854)", "T2 sequence": "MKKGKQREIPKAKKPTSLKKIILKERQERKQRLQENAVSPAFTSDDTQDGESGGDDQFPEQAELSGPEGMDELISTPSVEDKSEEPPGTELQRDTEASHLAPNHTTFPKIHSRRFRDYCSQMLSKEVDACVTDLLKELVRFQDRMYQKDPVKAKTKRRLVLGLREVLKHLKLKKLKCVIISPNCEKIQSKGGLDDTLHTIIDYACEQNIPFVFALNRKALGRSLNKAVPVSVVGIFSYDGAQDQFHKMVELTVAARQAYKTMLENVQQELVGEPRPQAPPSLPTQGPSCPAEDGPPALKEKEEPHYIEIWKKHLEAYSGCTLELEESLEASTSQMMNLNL", "assay": "EMSA"}, "Snu13p [3]": {"target": "T1, Snu13p", "assay": "EMSA", "remark": "listed apart in the source"}, "C-SBP2 [4]": {"target": "T2, C-SBP2", "assay": "EMSA", "remark": "listed apart in the source"}, "C-SBP2 [5]": {"target": "T2, C-SBP2", "assay": "EMSA", "remark": "listed apart in the source"}, "Snu13p [6]": {"target": "T1, Snu13p", "assay": "competition"}, "Snu13p [7]": {"target": "T1, Snu13p", "assay": "EMSA", "remark": "listed apart in the source"}, "C-SBP2 [8]": {"target": "T2, C-SBP2", "assay": "EMSA", "remark": "listed apart in the source"}},
  "note": "Like-named read-outs stand apart in the source and are kept apart here.",
  "data": [
    {"binder": "B1", "values": [
      {"measurement": "binding signal", "setting": "Snu13p [1]", "result": "~20 fold lower affinity than Se1"}
    ]},
    {"binder": "B2", "values": [
      {"measurement": "binding result", "setting": "C-SBP2 [2]", "result": "binds"}
    ]},
    {"binder": "B3", "values": [
      {"measurement": "binding result", "setting": "C-SBP2 [2]", "result": "binds"}
    ]},
    {"binder": "B4", "values": [
      {"measurement": "binding result", "setting": "C-SBP2 [2]", "result": "binds"}
    ]},
    {"binder": "B5", "values": [
      {"measurement": "binding result", "setting": "C-SBP2 [2]", "result": "binds"}
    ]},
    {"binder": "B6", "values": [
      {"measurement": "binding result", "setting": "C-SBP2 [2]", "result": "binds"}
    ]},
    {"binder": "B7", "values": [
      {"measurement": "Kd", "setting": "Snu13p [3]", "result": 35, "unit": "nM"},
      {"measurement": "Kd", "setting": "C-SBP2 [4]", "result": 500, "unit": "nM"}
    ]},
    {"binder": "B8", "values": [
      {"measurement": "binding signal", "setting": "C-SBP2 [5]", "result": "4 fold higher affinity than Se1"},
      {"measurement": "binding result", "setting": "Snu13p [6]", "result": "binds"}
    ]},
    {"binder": "B9", "values": [
      {"measurement": "Kd", "setting": "Snu13p [7]", "result": 25, "unit": "nM"},
      {"measurement": "Kd", "setting": "C-SBP2 [8]", "result": 300, "unit": "nM"}
    ]}
  ]
}
